Our source for the Kd, koff and kon values is patent CN112480258A (HUADAO SHANGHAI BIOMEDICAL CO LTD, dated 2021).

This test deals with T1, Human IL-3Rα/CD123蛋白 (human, UniProt P26951 19-305, limits assumed).
T1 construct: Soluble antigen in the SPR mobile phase
T1 sequence (looked up): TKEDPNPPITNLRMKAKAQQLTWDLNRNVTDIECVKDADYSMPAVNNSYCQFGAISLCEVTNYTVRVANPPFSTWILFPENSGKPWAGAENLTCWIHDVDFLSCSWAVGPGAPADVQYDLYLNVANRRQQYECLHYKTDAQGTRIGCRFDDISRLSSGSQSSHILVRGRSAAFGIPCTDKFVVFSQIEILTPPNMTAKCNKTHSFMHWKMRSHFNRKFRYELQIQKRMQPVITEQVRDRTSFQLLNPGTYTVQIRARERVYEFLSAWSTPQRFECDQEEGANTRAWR
The test is described as follows: SPR (Biacore), antibody immobilised on the chip, antigen in the mobile phase.

B1: CD123-9 VHH-mIgG2a Fc纳米抗体 (Fc fusion)
chain: EVQLVESGGGLVQPGGSLRLSCAASGFTFSSYDMSWVRQAPGKGLEWVSHIKPGPVGTDYTDSVKGRFTISRDNAKNTLYLQMDSLKTEDTAVYYCARGSRYSWNLDGPLRGQGTQVTVSS
notes: also called 抗CD123 VHH抗体CD123-9; CD123-9抗体; not shown: mouse IgG2a Fc tag from vector C-4pCP.Stuffer-mCg2a-FC
With B1, the dissociation constant (Kd) was found to be 0.0466 nM, the off-rate (koff) came out at 1.42e-05 s⁻¹ and the kon is 305000 M⁻¹ s⁻¹.

B2: CD123-12 VHH-mIgG2a Fc纳米抗体 (Fc fusion)
chain: EVQLVESGGDLVQPGGSLRLSCAASGFTFSSYDMSWVRQAPGKGLEWVSHIKPGPVGTDYTDSVKGRFTISRDNAKNTLYLQMDSLKTEDTAVYYCARGSRYSWNLDGPLRGQGTQVTVSS
notes: also called 抗CD123 VHH抗体CD123-12; CD123-12抗体; not shown: mouse IgG2a Fc tag from vector C-4pCP.Stuffer-mCg2a-FC
Turning to B2, the Kd amounted to 0.0551 nM, the off-rate (koff) came out at 1.62e-05 s⁻¹ and the kon was found to be 295000 M⁻¹ s⁻¹.

What is called Kd is the equilibrium constant for the complex coming apart. In general, koff refers to the rate constant with which the complex falls apart. High values mean a short-lived complex, low ones a long-lived complex. Broadly, the kon is the rate constant with which the complex forms. A high value points to faster complex formation.
